How the values were obtained:
[1] = biological target: retinoblastoma protein (pRb), endogenous in human cells (human (endogenous in HEK 293T, HeLa)) (UniProt P06400); assay: co-IP; HeLa cells transfected with pORFV119^Flag, harvested 12 h post transfection; reciprocal IP (anti-Flag or anti-pRb), high stringency buffer with 300 mM NaCl; Western blot
[2] = biological target: retinoblastoma protein (pRb), endogenous in human cells (human (endogenous in HEK 293T, HeLa)) (UniProt P06400); assay: co-IP; HEK 293T cells transfected with pORFV119^Flag, pORFV119^LxGxE-Flag or pORFV113^Flag, harvested 12 h post transfection; reciprocal IP of total protein extracts (anti-Flag, anti-pRb or anti-TRAF2), high stringency buffer with 300 mM NaCl, overnight at 4°C, protein G agarose; Western blot
[3] = biological target: retinoblastoma protein (pRb), endogenous in ovine OFTu cells (ovine (endogenous in OFTu)); assay: co-IP; OFTu cells infected with Flag-tagged recombinant ORFV (MOI 10), harvested 12 h p.i.; reciprocal IP of total protein extracts (anti-Flag or antibody against the cellular protein), high stringency buffer with 300 mM NaCl, overnight at 4°C, protein G agarose; Western blot
[4] = biological target: retinoblastoma protein (pRb), endogenous in ovine OFTu cells (ovine (endogenous in OFTu))
[5] = biological target: ORFV119^Flag expressed by revertant virus OV-IA82-RV119^Flag (orf virus (ORFV) strain OV-IA82); assay: co-IP; OFTu cells infected with Flag-tagged recombinant ORFV (MOI 10), harvested 12 h p.i.; reciprocal IP of total protein extracts (anti-Flag or antibody against the cellular protein), high stringency buffer with 300 mM NaCl, overnight at 4°C, protein G agarose; Western blot
[6] = biological target: ORFV119^Flag (ORFV119-3xFlag fusion protein expressed from plasmid pORFV119^Flag) (orf virus (ORFV) strain OV-IA82); assay: co-IP; HeLa cells transfected with pORFV119^Flag, harvested 12 h post transfection; reciprocal IP (anti-Flag or anti-pRb), high stringency buffer with 300 mM NaCl; Western blot
[7] = biological target: ORFV119^Flag (ORFV119-3xFlag fusion protein expressed from plasmid pORFV119^Flag) (orf virus (ORFV) strain OV-IA82); assay: co-IP; HEK 293T cells transfected with pORFV119^Flag, pORFV119^LxGxE-Flag or pORFV113^Flag, harvested 12 h post transfection; reciprocal IP of total protein extracts (anti-Flag, anti-pRb or anti-TRAF2), high stringency buffer with 300 mM NaCl, overnight at 4°C, protein G agarose; Western blot

In the case of “ORFV119^Flag (ORFV119-3xFlag fusion protein expressed from plasmid pORFV119^Flag) (natural protein)”, the percentage co-immunoprecipitated [1] is reported as 38.7% and the percentage co-immunoprecipitated [2] is reported as 28.4%.

“ORFV119^Flag expressed by revertant virus OV-IA82-RV119^Flag (natural protein)” was tested, and the percentage co-immunoprecipitated [3] was 18.5%.

With “ORFV119^LxGxE-Flag expressed by revertant virus OV-IA82-RV119^LxGxE-Flag (natural protein)” the fold increase of phosphorylated IKKα/β (Ser176/180) in OFTu cells infected with OV-IA82-RV119^LxGxE-Flag relative to OV-IA82, Western blot densitometry, 30 min and 1 h p.i. [4] was 27.4 fold, the fold increase of phosphorylated IκBα (Ser32/36) in OFTu cells infected with OV-IA82-RV119^LxGxE-Flag relative to OV-IA82, Western blot densitometry, 30 min and 1 h p.i. [4] was 21.2 fold and the fold increase of phosphorylated NF-κB-p65 (Ser536) in OFTu cells infected with OV-IA82-RV119^LxGxE-Flag relative to OV-IA82, Western blot densitometry, 30 min and 1 h p.i. [4] was 13.2 fold.

Molecule “retinoblastoma protein (pRb), endogenous in ovine OFTu cells (natural protein)” has a percentage co-immunoprecipitated [5] of 8.7%.

B1: retinoblastoma protein (pRb), endogenous in human cells (natural protein)
chain: MPPKTPRKTAATAAAAAAEPPAPPPPPPPEEDPEQDSGPEDLPLVRLEFEETEEPDFTALCQKLKIPDHVRERAWLTWEKVSSVDGVLGGYIQKKKELWGICIFIAAVDLDEMSFTFTELQKNIEISVHKFFNLLKEIDTSTKVDNAMSRLLKKYDVLFALFSKLERTCELIYLTQPSSSISTEINSALVLKVSWITFLLAKGEVLQMEDDLVISFQLMLCVLDYFIKLSPPMLLKEPYKTAVIPINGSPRTPRRGQNRSARIAKQLENDTRIIEVLCKEHECNIDEVKNVYFKNFIPFMNSLGLVTSNGLPEVENLSKRYEEIYLKNKDLDARLFLDHDKTLQTDSIDSFETQRTPRKSNLDEEVNVIPPHTPVRTVMNTIQQLMMILNSASDQPSENLISYFNNCTVNPKESILKRVKDIGYIFKEKFAKAVGQGCVEIGSQRYKLGVRLYYRVMESMLKSEEERLSIQNFSKLLNDNIFHMSLLACALEVVMATYSRSTSQNLDSGTDLSFPWILNVLNLKAFDFYKVIESFIKAEGNLTREMIKHLERCEHRIMESLAWLSDSPLFDLIKQSKDREGPTDHLESACPLNLPLQNNHTAADMYLSPVRSPKKKGSTTRVNSTANAETQATSAFQTQKPLKSTSLSLFYKKVYRLAYLRLNTLCERLLSEHPELEHIIWTLFQHTLQNEYELMRDRHLDQIMMCSMYGICKVKNIDLKFKIIVTAYKDLPHAVQETFKRVLIKEEEYDSIIVFYNSVFMQRLKTNILQYASTRPPTLSPIPHIPRSPYKFPSSPLRIPGGNIYISPLKSPYKISEGLPTPTKMTPRSRILVSIGESFGTSEKFQKINQMVCNSDRVLKRSAEGSNPPKPLKKLRFDIEGSDEADGSKHLPGESKFQQKLAEMTSTRTRMQKQKMNDSMDTSNKEEK
In the case of B1, the percentage co-immunoprecipitated [6] is reported as 21.5% and the percentage co-immunoprecipitated [7] is reported as 16.7%.

Source: paper PMC5747488
